Paper PMC6173638 (Cell, 2018)

Experiments:
[1] = biological target: Bosea sp. Root381 GapR, wild type (Bosea sp. Root381); experiment: crystal structure
[2] = biological target: Bosea sp. Root381 GapR(L48M-I54M-L73M), selenomethionine substituted (Bosea sp. Root381); experiment: crystal structure
SEC-MALS = biological target: the molecule itself; experiment: SEC-MALS
crystal structure = biological target: the molecule itself; experiment: crystal structure
GapR(11-89) L83M SeMet = biological target: T1, GapR(11-89) L83M SeMet (Caulobacter crescentus, UniProt B8H4R9 11-89, L83M); experiment: X-ray crystallography
T1 sequence: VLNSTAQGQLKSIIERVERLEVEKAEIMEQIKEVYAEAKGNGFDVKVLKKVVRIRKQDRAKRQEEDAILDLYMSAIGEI

GapR(11-89) WT = biological target: T2, GapR(11-89) WT (Caulobacter crescentus, UniProt B8H4R9 11-89); experiment: X-ray crystallography
T2 sequence: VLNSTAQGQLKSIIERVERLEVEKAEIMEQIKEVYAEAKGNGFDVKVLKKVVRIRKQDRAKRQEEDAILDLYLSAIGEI

For “Bosea sp. Root381 GapR, wild type (natural protein)”, the stoichiometry N [1] was 4.

For “Bosea sp. Root381 GapR(L48M-I54M-L73M), selenomethionine substituted (natural protein)”, the stoichiometry N [2] was 2.

B1: Caulobacter crescentus GapR, untagged (natural protein, UniProt B8H4R9 1-89, looked up)
chain: MADDAIPHTDVLNSTAQGQLKSIIERVERLEVEKAEIMEQIKEVYAEAKGNGFDVKVLKKVVRIRKQDRAKRQEEDAILDLYLSAIGEI
With B1 the “stoichiometry N” value (SEC-MALS) was 2.

B2: C. crescentus GapR(11-89) L83M, selenomethionine substituted (domain or fragment, Caulobacter crescentus, UniProt B8H4R9 11-89, looked up)
chain: VLNSTAQGQLKSIIERVERLEVEKAEIMEQIKEVYAEAKGNGFDVKVLKKVVRIRKQDRAKRQEEDAILDLYMSAIGEI
modifications: selenomethionine substituted
For B2, the “stoichiometry N” value (crystal structure) was 4.

B3: AT-rich crystallization 11-mer (dsDNA)
DNA 1: TTAAAATTAAA
DNA 2: TTTAATTTTAA
B3: binds (GapR(11-89) L83M SeMet); binds (GapR(11-89) WT).
